Results reported in patent US6348311B1, “ATM kinase modulation for screening and therapies” (St. Jude Childre's Research Hospital, priority 1999, dated 2002).
Where no end group is shown, it is not given here.

Legend:
Type in all cases: biochemical
ATM kinase = target: T1, ATM kinase (Homo sapiens, UniProt Q13315); experiment: In vitro kinase assay, ATM with GST-peptide / GST-fusion substrates; settings: for Relative Phosphorylation (%) ATM: GST-peptide substrate, relative to the p53ser15 site;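 as to all read-outs here: immunoprecipitated ATM incubated with [γ-32P]ATP at 30 °C for 20 min, substrates resolved by SDS-PAGE and radiolabel incorporation quantified by PhosphorImager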
T1 construct: The full-length cDNA encoding NH2-terminal, FLAG-tagged wild-type ATM; made in house; host or cells: 293T cells, transient transfection with pcDNA-FLAG-ATMwt, anti-FLAG M2 immunoprecipitate on beads

ATR = target: T2, ATR (Homo sapiens, UniProt Q13535); experiment: In vitro kinase assay, ATR with GST-peptide / GST-fusion substrates; settings: GST-peptide substrate; relative to the p53ser15 site
T2 construct: made in house; host or cells: 293T cells, transient transfection with pBJF-FRPwt, anti-FLAG M2 immunoprecipitate
Description: (§1) FIGS. 1A, 1B, and 1C. Phosphorylation of GST-p53 mutant peptides (amino acids 9-21) by ATM, ATR, and DNA-PK in vitro. In vitro kinase assays with immunoprecipitated, transfected flag-tagged ATM (A) or ATR (B) or purified DNA-PK (C) were performed with GST-p53 peptides containing the amino acid substitutions indicated. The amount of 32P-labeled GST-peptides was quantitated with a PhosphorImager and was normalized for each of the kinases to the level of phosphorylation of wild-type GST-p53.
(§2) FIGS. 2A, 2B, and 2C. Phosphorylation of candidate targets of by ATM, ATR and DNA-PK in vitro. GST-peptides containing the putative target sequences were used as substrates for the kinase assay.
Transfection and Kinase Activity Assays. 293T cells were transiently transfected with 10 μg of either pcDNA-FLAG-ATMwt, pcDNA-FLAG-ATMkd, pBJF-FRPwt or pBJF-FRPkd (Cliby et al., EMBO J., 17:159, 1998) using calcium phosphate and harvested two days later. Cells were lysed through sonication in TGN buffer [50 mM Tris (pH 7.5), 50 mM glycerophosphate, 150 mM NaCl, 10% glycerol, 1% Tween 20, 1 mM NaF, 1 mM NaVO4, 1 mM PMSF, […] Pepstatin A, 5 μg/ml leupeptin, 10 μg/ml Aprotinin and 1 mM DTT] as described (Brunn et al., Science, 277:99-101,1997). After centrifugation at 13,000 ×g, 2 mg of extract were incubated with mouse IgG and protein A/G sepharose beads (Calbiochem). FLAG-tagged proteins were then immunoprecipitated with anti-FLAG M2 monoclonal antibody (Eastman Kodak Company) and protein A/G sepharose beads. Immunoprecipitates were washed twice with TGN buffer, once with 100 mM Tris (pH 7.5) plus 0.5 M LiCl, and twice with kinase buffer [10 mM Hepes (pH 7.5), 50 mM glycerophosphate, 50 mM NaCl, 10 mM MgCl2, 10 mM MnCl2, 5 μM ATP, and 1 mM DTT]. Kinase reactions were initiated by resuspending washed beads in 30 μl of kinase buffer containing 10 μCi [γ-^32P]ATP and 1 μg GSTp531-101 and incubated for 30 minutes at 30° C. Proteins were electrophoretically separated by SDS-polyacrylamide gel electrophoresis, transferred to nitrocellulose, and analyzed on a PhosphorImager. FLAG-tagged proteins and GSTp531-101 were subjected to immunoblotting with either anti-FLAG M2 antibody or monoclonal antibodies directed towards the NH2-terminus of p53 (Ab-2 and Ab-6, Calbiochem) as described (Siliciano et al., Genes Dev., 11:3471, 1997).
Phosphorylation of Ser^15 of p53 by ATM and ATR/FRP1 in vitro. […] Proteins from each reaction were separated by SDS polyacrylamide gel electrophoresis (7% gel), transferred to nitrocellulose, and analyzed either on a PhosphorImager or by immunoblotting. Amounts of FLAG-tagged ATM or ATR in each kinase reaction were measured by immunoblotting with anti-FLAG M2 (top panel) and amount of [γ^32P]phosphate incorporated into ATM or ATR during the reaction (lower panel). […] An upper immunoreactive band represents phosphorylated GSTp53 fusion protein. The same exposures were used for ATM, ATR/FRP1 and corresponding substrate proteins.
(§3) Plasmids and GST-fusion protein production. For GST fusion peptide expression vectors, complementary oligonucleotides encoding desired peptides (14 amino acids) were cloned into the BamHI/SmaI site of pGEX-2T (Pharmacia). The constructs were confirmed by restriction enzyme digests and DNA sequencing. To construct the larger GST-p95 (327-391) protein fragment, p95 DNA encoding amino acids 327-391 was amplified by PCR with Pfu polymerase using the following primers: 5′ sense,
In vitro kinase assays and immunoprecipitation. […] Cleared supernatants were immunoprecipitated with anti-Flag M2 antibody and protein A/G agarose, the beads were washed with TGN buffer followed by TGN buffer plus 0.5 M LiCl, and two washes with kinase buffer [20 mM HEPES (pH 7.5), 50 mM NaCl, 10 mM MgCl2, 1 mM dithiothreitol (DTT) and 10 mM MnCl2]. […] ATP and […] of GST-fusion substrate (GST-p53:1-101), in varying concentration of Mn^2+. […]

DNA-PK = DNA-PK (Homo sapiens, UniProt P78527); experiment: In vitro kinase assay, purified DNA-PK with GST-peptide / GST-fusion substrates; settings: for Relative Phosphorylation (%) DNA-PK: GST-peptide substrate, relative to the p53ser15 site
Description: as §1, §2, §3
In vitro kinase assays and immunoprecipitation. […] Cleared supernatants were immunoprecipitated with anti-Flag M2 antibody and protein A/G agarose, the beads were washed with TGN buffer followed by TGN buffer plus 0.5 M LiCl, and two washes with kinase buffer [20 mM HEPES (pH 7.5), 50 mM NaCl, 10 mM MgCl2, 1 mM dithiothreitol (DTT) and 10 mM MnCl2]. […] ATP and […] of GST-fusion substrate (GST-p53:1-101), in varying concentration of Mn^2+. The kinase reaction was conducted at 30° C. for 20 min and stopped by the addition of SDS-PAGE loading buffer. Proteins were separated on SDS-polyacrylamide gel electrophoresis (SDS-PAGE) and transferred to nitrocellulose. Radiolabeled proteins were visualized and quantitated on a Phosphorimager (Molecular Dynamics). Use of equivalent amounts of flag-tagged ATM or ATR in the different lanes was confirmed by immunoblotting with anti-flag antibody. In some reactions, either supercoiled DNA (pBluescript II KS, Stratagene) or linearized DNA (pBluescript II KS cut with EcoR1) was added ([…]). For endogenous ATM kinase reactions, endogenous ATM was immunoprecipitated from GM0536 lymphhoblasts with ATM monoclonal antibody (D16.11) in M buffer (PBS, 10% glycerol, 0.2% Tween 20, 0.3% NP-40, 1 mM NaF, 1 mM Na3VO4, 1 mM PMSF, 1x protease inhibitor mixture]. After washing with M buffer and kinase buffer, in vitro kinase reactions were carried out according to procedures described above. The DNA-PK in vitro kinase reaction was performed as previously described (Gottlieb and Jackson, 1993), using 20 ng each of DNA-PKcs or DNA-PK (20 ng DNA-PKcs premixed with 20 ng Ku 70/80).

[1] = GST-conjugated 14 amino acid peptides

T1 sequence (Q13315 whole entry, the tested form may be a part): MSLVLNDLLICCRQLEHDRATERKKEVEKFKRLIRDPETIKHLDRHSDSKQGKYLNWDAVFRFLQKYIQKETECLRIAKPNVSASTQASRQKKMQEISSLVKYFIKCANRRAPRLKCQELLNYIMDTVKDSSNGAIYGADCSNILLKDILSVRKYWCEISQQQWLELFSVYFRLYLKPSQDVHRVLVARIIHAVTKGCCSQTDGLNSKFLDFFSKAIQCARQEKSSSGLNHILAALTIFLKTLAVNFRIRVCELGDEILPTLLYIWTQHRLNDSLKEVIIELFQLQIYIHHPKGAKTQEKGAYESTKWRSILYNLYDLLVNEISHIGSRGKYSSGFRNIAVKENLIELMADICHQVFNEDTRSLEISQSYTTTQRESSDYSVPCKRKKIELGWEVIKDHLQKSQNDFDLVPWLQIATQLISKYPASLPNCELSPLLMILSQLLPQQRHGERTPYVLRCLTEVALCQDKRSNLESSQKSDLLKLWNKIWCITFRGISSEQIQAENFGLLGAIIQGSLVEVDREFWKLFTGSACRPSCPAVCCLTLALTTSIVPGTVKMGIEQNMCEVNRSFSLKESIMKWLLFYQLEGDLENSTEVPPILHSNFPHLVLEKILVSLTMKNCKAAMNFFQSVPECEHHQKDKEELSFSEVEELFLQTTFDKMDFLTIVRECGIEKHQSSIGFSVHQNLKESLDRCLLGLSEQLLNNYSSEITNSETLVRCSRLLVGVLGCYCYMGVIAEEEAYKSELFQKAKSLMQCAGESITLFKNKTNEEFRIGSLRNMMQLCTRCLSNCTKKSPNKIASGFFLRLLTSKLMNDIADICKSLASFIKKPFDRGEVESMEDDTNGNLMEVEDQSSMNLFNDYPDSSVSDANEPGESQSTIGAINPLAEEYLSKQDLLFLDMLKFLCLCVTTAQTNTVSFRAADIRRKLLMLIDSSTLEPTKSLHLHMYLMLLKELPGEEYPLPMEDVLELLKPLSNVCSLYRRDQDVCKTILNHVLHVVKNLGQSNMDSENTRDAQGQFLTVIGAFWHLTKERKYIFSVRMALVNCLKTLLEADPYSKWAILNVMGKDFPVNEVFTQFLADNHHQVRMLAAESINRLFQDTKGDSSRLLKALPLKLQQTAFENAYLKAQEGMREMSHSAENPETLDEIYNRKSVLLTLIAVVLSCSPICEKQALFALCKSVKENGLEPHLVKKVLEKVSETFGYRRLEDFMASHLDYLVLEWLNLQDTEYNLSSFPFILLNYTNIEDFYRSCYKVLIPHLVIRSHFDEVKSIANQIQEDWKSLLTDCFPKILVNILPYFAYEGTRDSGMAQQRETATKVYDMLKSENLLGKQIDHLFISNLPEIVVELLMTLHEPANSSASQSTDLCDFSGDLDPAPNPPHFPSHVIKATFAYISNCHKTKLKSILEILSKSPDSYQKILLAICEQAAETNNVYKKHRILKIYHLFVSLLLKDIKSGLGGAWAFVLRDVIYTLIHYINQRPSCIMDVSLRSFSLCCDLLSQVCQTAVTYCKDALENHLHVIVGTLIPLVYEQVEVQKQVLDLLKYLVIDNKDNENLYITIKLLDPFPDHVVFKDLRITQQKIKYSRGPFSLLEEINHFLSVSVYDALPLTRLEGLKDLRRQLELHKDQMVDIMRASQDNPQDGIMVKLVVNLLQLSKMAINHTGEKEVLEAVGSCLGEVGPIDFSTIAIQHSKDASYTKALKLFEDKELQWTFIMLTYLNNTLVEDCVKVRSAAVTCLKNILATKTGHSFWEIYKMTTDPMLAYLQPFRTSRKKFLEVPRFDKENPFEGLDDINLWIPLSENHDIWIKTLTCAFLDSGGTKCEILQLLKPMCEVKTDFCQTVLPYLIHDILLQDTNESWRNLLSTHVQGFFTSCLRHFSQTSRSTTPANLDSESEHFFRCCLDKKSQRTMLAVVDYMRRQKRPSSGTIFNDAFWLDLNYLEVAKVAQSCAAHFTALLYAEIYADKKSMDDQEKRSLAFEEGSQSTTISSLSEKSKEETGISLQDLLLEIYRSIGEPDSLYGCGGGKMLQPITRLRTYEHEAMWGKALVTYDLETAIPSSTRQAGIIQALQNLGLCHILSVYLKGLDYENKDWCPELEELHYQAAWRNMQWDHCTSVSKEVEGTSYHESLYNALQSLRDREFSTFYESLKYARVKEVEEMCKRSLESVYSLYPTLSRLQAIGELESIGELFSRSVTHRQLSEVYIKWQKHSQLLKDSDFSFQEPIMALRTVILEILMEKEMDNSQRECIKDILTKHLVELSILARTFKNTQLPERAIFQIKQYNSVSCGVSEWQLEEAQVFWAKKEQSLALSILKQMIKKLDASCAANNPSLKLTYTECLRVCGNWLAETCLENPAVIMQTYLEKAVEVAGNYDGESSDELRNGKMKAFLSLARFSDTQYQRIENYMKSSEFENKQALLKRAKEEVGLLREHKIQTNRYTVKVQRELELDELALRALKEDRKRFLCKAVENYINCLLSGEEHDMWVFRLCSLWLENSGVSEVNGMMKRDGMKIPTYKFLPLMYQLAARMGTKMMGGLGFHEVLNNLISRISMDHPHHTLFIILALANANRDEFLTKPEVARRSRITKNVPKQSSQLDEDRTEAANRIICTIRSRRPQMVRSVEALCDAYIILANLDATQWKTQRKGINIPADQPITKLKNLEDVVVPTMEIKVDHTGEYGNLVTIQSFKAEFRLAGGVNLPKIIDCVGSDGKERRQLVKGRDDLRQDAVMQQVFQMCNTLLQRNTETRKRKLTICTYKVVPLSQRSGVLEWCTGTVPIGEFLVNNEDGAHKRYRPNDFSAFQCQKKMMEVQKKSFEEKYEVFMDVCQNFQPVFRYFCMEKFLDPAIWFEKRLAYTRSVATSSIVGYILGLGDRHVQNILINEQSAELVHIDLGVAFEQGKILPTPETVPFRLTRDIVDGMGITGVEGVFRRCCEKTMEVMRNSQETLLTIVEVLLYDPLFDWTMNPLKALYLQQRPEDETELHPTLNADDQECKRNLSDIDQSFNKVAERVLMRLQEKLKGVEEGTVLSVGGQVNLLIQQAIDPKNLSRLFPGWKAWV

Substance	Relative Phosphorylation (%) ATM (ATM kinase) [%]	Relative Phosphorylation (%) ATR (ATR) [%]	Relative Phosphorylation (%) DNA-PK (DNA-PK) [%]	phosphorylation of GST-peptide substrate by ATM (in words) (ATM kinase; [1])	phosphorylation of GST-peptide substrate by DNA-PK (in words) (DNA-PK; [1])
DNA 5B: GST-peptide QPEPPVSQSEISEP (SEQ ID NO:38), S72 (also: GST fusion)	3	145	15	–	–
DNA LIG-IV: GST-peptide DLKLGVSQQTIFSV (SEQ ID NO:39), S132 (also: GST fusion)	5	36	48	not by ATM	phosphorylated by DNA-PKcs
MRE11 (SQ1): GST-peptide QQLFYISQPGSSVV (SEQ ID NO:11), S264 (also: GST fusion)	20	48	10	–	–
MRE11 (SQ2): GST-peptide FSVLRFSQKFVDRV (SEQ ID NO:12), S386 (also: GST fusion)	<1	17	<1	–	–
MRE11 (SQ3): GST-peptide RARALRSQSEESAS (SEQ ID NO:13), S531 (also: GST fusion)	<1	13	<1	–	–
PI-3K: GST-peptide DLLMYLSQLVQALK (SEQ ID NO:26), S397 (also: GST fusion)	<1	150	<1	–	–
PTS (123F2): GST-peptide WETPDLSQAEIEQK (SEQ ID NO:37), S61 (not fully specified (N-terminus); also: GST fusion)	111	40	33	–	–
RAD17 (SQ1): GST-peptide TWSLPLSQDSASEL (SEQ ID NO:18), S646 (not fully specified (N-terminus); also: GST fusion)	81	733	97	–	–
RAD17 (SQ2): GST-peptide ASELPASQPQPFSA (SEQ ID NO:19), S656 (not fully specified (N-terminus); also: GST fusion; listed as Homo sapiens)	91	1065	25	–	–
RPA34kD (SQ1): GST-peptide FPAPAPSQAEKKSR (SEQ ID NO:40), S33 (not fully specified (N-terminus); also: GST fusion; listed as Homo sapiens)	<1	5	<1	–	–
RPA34kD (SQ2): GST-peptide IVPCTISQLLSATL (SEQ ID NO:41), S52 (not fully specified (N-terminus); also: GST fusion; listed as Homo sapiens)	<1	31	<1	–	–
RPA34kD (SQ3): GST-peptide TGNVEISQVTIVGI (SEQ ID NO:42), S72 (not fully specified (N-terminus); also: GST fusion; listed as Homo sapiens)	<1	8	<1	–	–
WRN (SQ1): GST-peptide EKAYSSSQPVISAQ (SEQ ID NO:21), S1141 (not fully specified (N-terminus); also: GST fusion; listed as Homo sapiens)	25	49	14	–	–
WRN (SQ2): GST-peptide TIGMHLSQAVKAGC (SEQ ID NO:20), S1292 (not fully specified (N-terminus); also: GST fusion; listed as Homo sapiens)	10	33	5	–	–
c-ABL: GST-peptide YPGIDLSQVYELLE (SEQ ID NO:23), S446 (not fully specified (N-terminus); also: GST fusion; listed as Homo sapiens)	<1	8	<1	–	–
p53 S37: GST-peptide VLSPLPSQAMDDLM (SEQ ID NO:8), p53 serine 37 site (not fully specified (N-terminus); also: GST fusion; listed as Homo sapiens)	9	31	132	–	–
p95: GST-peptide TPGPSLSQGVSVDE (SEQ ID NO:10), S343 (not fully specified (N-terminus); also: GST fusion; listed as Homo sapiens)	19	31	45	–	–
p115-RhoGEF: GST-peptide RLRPLLSQLGGNSV (SEQ ID NO:27), S899 (not fully specified (N-terminus); also: GST fusion; listed as Homo sapiens)	<1	15	<1	–	–
p120E4F: GST-peptide APEPPVSQELPCSR (SEQ ID NO:31), S355 (not fully specified (N-terminus); also: GST fusion; listed as Homo sapiens)	11	30	2	–	–
